Test results from publication PMC4416878.

Key:
[1] = biological target: Golgi anti-apoptotic protein (GAAP) from camelpox virus, wild type, purified (camelpox virus (CMLV)); assay: SEC
[2] = biological target: Golgi anti-apoptotic protein (GAAP) from vaccinia virus strain Evans, purified (vaccinia virus (VACV) strain Evans); assay: SEC

Substance	percent of protein oligomeric [1] [%]	percent of total protein in oligomeric states (% of total protein) [1]	percent of total protein in oligomeric states (% of total protein) [2]
Golgi anti-apoptotic protein (GAAP) from camelpox virus, wild type, purified (natural protein)	84	87	
Golgi anti-apoptotic protein (GAAP) from vaccinia virus strain Evans, purified (natural protein)			64
